Test results as given in the supplement of paper PMC7877785.
± gives the uncertainty stated by the source.

Test: self-splicing fitness, log relative to wild type (ln ratio); higher = more splicing; Tetrahymena group I intron in knt gene, E. coli kanamycin selection, DiMSum; sequences stand for … in CUCUCU…GGAGGGAAAAGUUAUCAGGCAUGCACCUGGUAGCUAGUCUUUAAACCAAUAGAUUGCAUCGGUUUAAAAGGCAAGACCGUCAAAUUGCGGGAAAGGGGUCAACAGCCGUUCAGUACCAAGUCUCAGGGGAAACUUUGAGAUGGCCUUGCAAAGGGUAUGGUAAUAAGCUGACGGACAUGGUCCUAACCACGCAGCCAAGUCCUAAGUCAACAGAUCUUCUGUUGAUAUGGAUGCAGUUCACAGACUAAAUGUCGGUCGGGGAAGAUGUAUUCUUCUCAUAAGAUAUAGUCGGACCUCUCCUUAAUGGGAGCUAGCGGAUGAAGUGAUGCAACACUGGAGCCGCUGGGAACUAAUUUGUAUGCGAAAGUAUAUUGAUUAGUUUUGGAGUACUCGUGGUCG
In short: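 Colonies from six replicate transformations of E. coli BL21(DE3) were pooled and amplicon-sequenced on an Illumina HiSeq 2500. The library placed an intron with all eight P1ex-region nucleotides randomised inside the knt kanamycin-resistance gene on pET-22b(+), and cells grew overnight at 37°C or 30°C on LB agar with or without 25 μg/mL kanamycin (plus 100 μg/mL carbenicillin, 50 μM IPTG, 0.2% rhamnose). Fitness is the DiMSum error-weighted combination of wild-type-normalised replicate fold changes, kanamycin versus none.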

Sequence	self-splicing fitness (ln) (37 °C)	self-splicing fitness (ln) (30 °C)
UGGGAGCAAUAUUACGGUUC	-0.762 ± 0.44	
UGGGAGCAAUAUUACGUGAC	-2.53 ± 0.44	
UGGGAGCAAUAUUACGUUAU	-1.86 ± 0.34	-3.22 ± 0.27
UGGGAGCAAUAUUACGUUGG	-2.85 ± 0.26	-3.45 ± 0.22
UGGGAGCAAUAUUACGUUUU	-2.51 ± 0.33	-4.43 ± 0.4
UGGUAGCAAUAUUACGAAAU	-3.17 ± 0.31	-2.72 ± 0.28
UGGUAGCAAUAUUACGAAUG	-1.02 ± 0.12	-1.95 ± 0.12
UGGUAGCAAUAUUACGAGUC	-2.29 ± 0.32	
UGGUAGCAAUAUUACGAGUU	-2.75 ± 0.24	-2.91 ± 0.24
UGGUAGCAAUAUUACGAUAG	-0.14 ± 0.14	-1.94 ± 0.2
UGGUAGCAAUAUUACGCAAA	-1.59 ± 0.17	-2.06 ± 0.29
UGGUAGCAAUAUUACGCAGU	-2.76 ± 0.4	-3.14 ± 0.4
UGGUAGCAAUAUUACGCAUG	0.872 ± 0.14	-1.33 ± 0.1
UGGUAGCAAUAUUACGCAUU	-1.66 ± 0.19	-1.88 ± 0.15
UGGUAGCAAUAUUACGCGCC	-2.02 ± 0.42	-1.45 ± 0.3
UGGUAGCAAUAUUACGCGGA	-0.911 ± 0.17	-1.86 ± 0.15
UGGUAGCAAUAUUACGCUAA	-0.667 ± 0.16	-1.37 ± 0.14
UGGUAGCAAUAUUACGGAUC	-1.65 ± 0.32	-2.25 ± 0.23
UGGUAGCAAUAUUACGGCAC	-1.39 ± 0.44	
UGGUAGCAAUAUUACGGCUC	-0.984 ± 0.14	-0.912 ± 0.12
UGGUAGCAAUAUUACGGGUG	-0.609 ± 0.08	-1.26 ± 0.1
UGGUAGCAAUAUUACGGUCC	-1.24 ± 0.33	-2.05 ± 0.29

Sequence	self-splicing fitness (ln) (37 °C)	self-splicing fitness (ln) (30 °C)
UGGUAGCAAUAUUACGGUCG	-0.0256 ± 0.16	-0.382 ± 0.12
UGGUAGCAAUAUUACGUAGU	-1.04 ± 0.18	-3.23 ± 0.22
UGGUAGCAAUAUUACGUGCA	-1.27 ± 0.1	-0.653 ± 0.11
UGGUAGCAAUAUUACGUGGC	-3.04 ± 0.34	-3.64 ± 0.32
UGGUAGCAAUAUUACGUGUA	-0.721 ± 0.1	-2.09 ± 0.13
UGGUAGCAAUAUUACGUUAU	-3.33 ± 0.31	-3.29 ± 0.28
UGGUAGCAAUAUUACGUUCU	-0.725 ± 0.14	-1.48 ± 0.12
UGUAAGCAAUAUUACGAAAA	-1.15 ± 0.16	-1.7 ± 0.15
UGUAAGCAAUAUUACGAAAU	-0.0192 ± 0.17	-2.47 ± 0.18
UGUAAGCAAUAUUACGAAGU	-2.46 ± 0.35	-3.23 ± 0.47
UGUAAGCAAUAUUACGACCG	0.133 ± 0.18	0.431 ± 0.12
UGUAAGCAAUAUUACGCACG	-0.234 ± 0.11	-0.966 ± 0.092
UGUAAGCAAUAUUACGCAGU	-2.22 ± 0.24	-2.92 ± 0.22
UGUAAGCAAUAUUACGCAUU	-2.08 ± 0.24	-3.58 ± 0.28
UGUAAGCAAUAUUACGCCAA	-1.34 ± 0.2	-2.77 ± 0.26
UGUAAGCAAUAUUACGCCAG	-1.07 ± 0.33	-1.82 ± 0.34
UGUAAGCAAUAUUACGCCUG	-0.11 ± 0.1	0.084 ± 0.088
UGUAAGCAAUAUUACGCGAU	-1.25 ± 0.21	-3.35 ± 0.29
UGUAAGCAAUAUUACGCUCA	0.681 ± 0.18	-0.207 ± 0.11
UGUAAGCAAUAUUACGCUGG	-1.85 ± 0.19	-1.24 ± 0.15
UGUAAGCAAUAUUACGGAGC		-2.11 ± 0.33
